Article doi:10.1101/2022.12.09.519731 (bioRxiv, 2022)
Several values for one entry are separate records, joined by “and”; a condition that tells them apart may be missing. Equal values may be shown once.

How the values were obtained:
[1] = biological target: MalE-MglC (Myxococcus xanthus); experiment: mass photometry
[2] = biological target: MalE-RomR (Myxococcus xanthus); experiment: mass photometry
MglA-His6 = biological target: T1, MglA-His6 (Myxococcus xanthus, UniProt Q1DB04 1-195); experiment: pull-down
T1 sequence: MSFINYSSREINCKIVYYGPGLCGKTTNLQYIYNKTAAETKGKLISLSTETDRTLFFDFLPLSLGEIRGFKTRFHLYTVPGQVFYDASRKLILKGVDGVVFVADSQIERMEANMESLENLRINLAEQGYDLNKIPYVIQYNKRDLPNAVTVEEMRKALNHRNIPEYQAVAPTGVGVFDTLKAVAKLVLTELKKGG

MalE-MglC (natural protein) gave a stoichiometry N [1] of 2.

MalE-RomR (natural protein) was tested, and the stoichiometry N [2] was 3 and 2, the stoichiometry N (RomR:MglC (2:2)) [1] was 1 and the stoichiometry N (RomR:MglC (3:2)) [1] was 1.5.

B1: His6-MglB (natural protein, Myxococcus xanthus)
chain: MGTQLVMYEEEFTKINAVCDRLTKDANAKVVFLVDKNGQLISSAGQTQNIDTTSLASLTAGNVAAMGGLAKLIGENEFPNQFHEGAKDSLYMTIVGSRVVLVVIFDNRTSLGLVRLRIKKASDELTKIFESLVKKTDSPGAGSPFAEISDDDIDNLFSE
B1: binds (MglA-His6).
